This data set has as its target SerRS (seryl-tRNA synthetase) wild type (Homo sapiens, UniProt P49591 SEQ:1-514). The data set is described as follows: EMSA; 20 mM Tris pH 8.0, 60 mM KCl, 5 mM MgCl2, poly(dG-dC), room temperature. Conditions: tags: C-terminal His6; label: 5'-32P. The method, then: The 27 bp DNA oligonucleotides corresponding to SerRS binding site on the VEGFA promoter (5′ GGCGGGGCGGAGCCATGCGCCCCCCCC 3′ (SEQ ID NO: 36)) were synthesized, annealed, and [³²P]-labeled at the 5′ end by T4 DNA kinase (New England Biolabs, Ipswich, Mass., USA) before desalting using a sephadex G-25 spin column (GE Healthcare, Pittsburgh, Pa., USA). The labeled oligonucleotides (0.08 pmol) were incubated with recombinant SerRS at indicated concentrations in binding buffer (20 mM Tris-HCl, pH 8.0, 60 mM KCl, 5 mM MgCl₂, 0.1 mg ml⁻¹ BSA, 10 ng μl⁻¹ poly (dG-dC), 1 mM DTT) for 30 min at room temperature. The samples were loaded to 5% native polyacrylamide gel (17.5 cm in length) and underwent electrophoresis at 250 V in running buffer (25 mM Tris, pH 8.3, 190 mM glycine). Afterwards, the gel was dried and examined by autoradiography.
The effect of hypoxia on the interaction of SerRS with VEGFA promoter was also explored. As detected by electrophoresis mobility shift assay (EMSA), the direct binding between SerRS and a ³²P-labeled 27-bp DNA fragment previously identified as the SerRS binding site from the VEGFA promoter in Shi et al. 2014 was attenuated by the phosphor-mimicking mutant SerRS^{S101D/S241D} (FIG. 2E).

Sequence of SerRS (seryl-tRNA synthetase) wild type (P49591 whole entry): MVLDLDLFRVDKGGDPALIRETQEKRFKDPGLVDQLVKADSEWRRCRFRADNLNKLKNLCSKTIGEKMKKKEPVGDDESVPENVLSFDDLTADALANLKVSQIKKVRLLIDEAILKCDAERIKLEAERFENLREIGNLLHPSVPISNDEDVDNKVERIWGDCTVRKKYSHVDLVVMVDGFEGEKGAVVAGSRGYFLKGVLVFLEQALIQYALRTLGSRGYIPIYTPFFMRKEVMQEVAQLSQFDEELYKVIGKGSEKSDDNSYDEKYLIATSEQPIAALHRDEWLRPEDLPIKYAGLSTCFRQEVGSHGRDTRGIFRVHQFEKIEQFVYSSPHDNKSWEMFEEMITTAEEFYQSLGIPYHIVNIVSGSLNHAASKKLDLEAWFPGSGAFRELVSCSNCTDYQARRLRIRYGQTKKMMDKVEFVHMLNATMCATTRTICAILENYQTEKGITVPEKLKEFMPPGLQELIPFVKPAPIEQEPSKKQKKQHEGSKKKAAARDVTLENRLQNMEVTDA

B1: VEGFA promoter 27-bp SerRS site (dsDNA)
DNA 1: GGCGGGGCGGAGCCATGCGCCCCCCCC
DNA 2: GGGGGGGGCGCATGGCTCCGCCCCGCC
With B1, the binding result was “binds”.
